Data: PMC6173309

Molecular target: SOX11 (UniProt P35716 34-132)
Assay: EMSA

SOX11, sequence (P35716 34-132): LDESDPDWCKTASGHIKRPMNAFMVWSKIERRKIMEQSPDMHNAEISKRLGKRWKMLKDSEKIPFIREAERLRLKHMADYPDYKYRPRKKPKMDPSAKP

B1: modified Widom 601 with SOX11 site, free DNA (dsDNA)
DNA 1: CTGGAGAATCCCGGTCTGCAGGCCGCTCAATTGGTCGTAGACAGCTCTAGCACCGCTTAAACGCACGTACGGTATTGTTTATTTTGTTCCTCCGCCAAGGGGATTACTCCCTAGTCTCCAGGCACGTGTCAGATATATACATCCTGT
DNA 2: ACAGGATGTATATATCTGACACGTGCCTGGAGACTAGGGAGTAATCCCCTTGGCGGAGGAACAAAATAAACAATACCGTACGTGCGTTTAAGCGGTGCTAGAGCTGTCTACGACCAATTGAGCGGCCTGCAGACCGGGATTCTCCAG
B1: binds.
